From patent publication US20110263454A1, “Methods of Identifying Functional Characteristics of Promoters, Transcription Modifying Proteins and Transcription Modulating Agents” (Salk Institute for Biological Studies, priority 2008, published 2011)

B1: GCNF: Germ Cell Nuclear Factor (NR6A1, GCNF1), cDNA driver (protein, UniProt Q15406 1-480, looked up)
Nuclear receptor subfamily 6 …: MERDEPPPSGGGGGGGSAGFLEPPAALPPPPRNGFCQDELAELDPGTISVSDDRAEQRTCLICGDRATGLHYGIISCEGCKGFFKRSICNKRVYRCSRDKNCVMSRKQRNRCQYCRLLKCLQMGMNRKAIREDGMPGGRNKSIGPVQISEEEIERIMSGQEFEEEANHWSNHGDSDHSSPGNRASESNQPSPGSTLSSSRSVELNGFMAFREQYMGMSVPPHYQYIPHLFSYSGHSPLLPQQARSLDPQSYSLIHQLLSAEDLEPLGTPMLIEDGYAVTQAELFALLCRLADELLFRQIAWIKKLPFFCELSIKDYTCLLSSTWQELILLSSLTVYSKQIFGELADVTAKYSPSDEELHRFSDEGMEVIERLIYLYHKFHQLKVSNEEYACMKAINFLNQDIRGLTSASQLEQLNKRYWYICQDFTEYKYTHQPNRFPDLMMCLPEIRYIAGKMVNVPLEQLPLLFKVVLHSCKTSVGKE
B2: NR4a2: NR4a2 (NR4A2; NURR1), nuclear hormone receptor cDNA driver (protein, UniProt P43354 1-598, looked up)
Nuclear receptor subfamily 4 …: MPCVQAQYGSSPQGASPASQSYSYHSSGEYSSDFLTPEFVKFSMDLTNTEITATTSLPSFSTFMDNYSTGYDVKPPCLYQMPLSGQQSSIKVEDIQMHNYQQHSHLPPQSEEMMPHSGSVYYKPSSPPTPTTPGFQVQHSPMWDDPGSLHNFHQNYVATTHMIEQRKTPVSRLSLFSFKQSPPGTPVSSCQMRFDGPLHVPMNPEPAGSHHVVDGQTFAVPNPIRKPASMGFPGLQIGHASQLLDTQVPSPPSRGSPSNEGLCAVCGDNAACQHYGVRTCEGCKGFFKRTVQKNAKYVCLANKNCPVDKRRRNRCQYCRFQKCLAVGMVKEVVRTDSLKGRRGRLPSKPKSPQEPSPPSPPVSLISALVRAHVDSNPAMTSLDYSRFQANPDYQMSGDDTQHIQQFYDLLTGSMEIIRGWAEKIPGFADLPKADQDLLFESAFLELFVLRLAYRSNPVEGKLIFCNGVVLHRLQCVRGFGEWIDSIVEFSSNLQNMNIDISAFSCIAALAMVTERHGLKEPKRVEELQNKIVNCLKDHVTFNNGGLNRPNYLSKLLGKLPELRTLCTQGLQRIFYLKLEDLVPPPAIIDKLFLDTLPF
B3: SHP: Small Heterodimer Partner (NR0B2), cDNA driver (protein, UniProt Q15466 1-257, looked up)
Nuclear receptor subfamily 0 …: MSTSQPGACPCQGAASRPAILYALLSSSLKAVPRPRSRCLCRQHRPVQLCAPHRTCREALDVLAKTVAFLRNLPSFWQLPPQDQRRLLQGCWGPLFLLGLAQDAVTFEVAEAPVPSILKKILLEEPSSSGGSGQLPDRPQPSLAAVQWLQCCLESFWSLELSPKEYACLKGTILFNPDVPGLQAASHIGHLQQEAHWVLCEVLEPWCPAAQGRLTRVLLTASTLKSIPTSLLGDLFFRPIIGDVDIAGLLGDMLLLR
B4: DAX-1: DAX1 (NR0B1), cDNA driver (protein, UniProt P51843 1-470, looked up)
Nuclear receptor subfamily 0 …: MAGENHQWQGSILYNMLMSAKQTRAAPEAPETRLVDQCWGCSCGDEPGVGREGLLGGRNVALLYRCCFCGKDHPRQGSILYSMLTSAKQTYAAPKAPEATLGPCWGCSCGSDPGVGRAGLPGGRPVALLYRCCFCGEDHPRQGSILYSLLTSSKQTHVAPAAPEARPGGAWWDRSYFAQRPGGKEALPGGRATALLYRCCFCGEDHPQQGSTLYCVPTSTNQAQAAPEERPRAPWWDTSSGALRPVALKSPQVVCEAASAGLLKTLRFVKYLPCFQVLPLDQQLVLVRNCWASLLMLELAQDRLQFETVEVSEPSMLQKILTTRRRETGGNEPLPVPTLQHHLAPPAEARKVPSASQVQAIKCFLSKCWSLNISTKEYAYLKGTVLFNPDVPGLQCVKYIQGLQWGTQQILSEHTRMTHQGPHDRFIELNSTLFLLRFINANVIAELFFRPIIGTVSMDDMMLEMLCTKI
B5: NR4a3: NR4a3 (NR4A3; NOR1), nuclear hormone receptor cDNA driver (protein, UniProt Q92570 1-626, looked up)
Nuclear receptor subfamily 4 …: MPCVQAQYSPSPPGSSYAAQTYSSEYTTEIMNPDYTKLTMDLGSTEITATATTSLPSISTFVEGYSSNYELKPSCVYQMQRPLIKVEEGRAPSYHHHHHHHHHHHHHHQQQHQQPSIPPASSPEDEVLPSTSMYFKQSPPSTPTTPAFPPQAGALWDEALPSAPGCIAPGPLLDPPMKAVPTVAGARFPLFHFKPSPPHPPAPSPAGGHHLGYDPTAAAALSLPLGAAAAAGSQAAALESHPYGLPLAKRAAPLAFPPLGLTPSPTASSLLGESPSLPSPPSRSSSSGEGTCAVCGDNAACQHYGVRTCEGCKGFFKRTVQKNAKYVCLANKNCPVDKRRRNRCQYCRFQKCLSVGMVKEVVRTDSLKGRRGRLPSKPKSPLQQEPSQPSPPSPPICMMNALVRALTDSTPRDLDYSRYCPTDQAAAGTDAEHVQQFYNLLTASIDVSRSWAEKIPGFTDLPKEDQTLLIESAFLELFVLRLSIRSNTAEDKFVFCNGLVLHRLQCLRGFGEWLDSIKDFSLNLQSLNLDIQALACLSALSMITERHGLKEPKRVEELCNKITSSLKDHQSKGQALEPTESKVLGALVELRKICTLGLQRIFYLKLEDLVSPPSIIDKLFLDTLPF

Tests used:
[1] = test system: hG6PD promoter; test: NHR-promoter luciferase screen, hG6PD promoter; format: cell-based, human; settings: for Luc. act., normalized to lacZ / Normalized Luc. act., normalized to control: G6PD promoter reporter, co-transfected HR, without or with its ligand; for Normalized Luc. act., normalized to control: relative to control; for luciferase activity normalized to lacZ activity and to a control, hG6PD: hG6PD promoter-luciferase, CV-1 cells, NHR +/- ligand, control = 1.00
How it was run: (§1)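 CV-1 cells were co-transfected with 50 ng NHR (homodimer or NHR/RXR heterodimer), 100 ng promoter-luciferase construct and 50 ng LacZ. Luciferase was normalized to LacZ and to a no-NHR/no-ligand control.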

[2] = test system: SREBP1c promoter; test: NHR-promoter luciferase screen, SREBP1c promoter; format: cell-based, mouse; settings: for Luc. act., normalized to lacZ / Normalized Luc. act., normalized to control: SREBP1c promoter, HR component without or with ligand; for mSREBP1-c promoter reporter activity: transcription factor +/- ligand, control = 1.00
How it was run: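 Values are luciferase activity normalised to LacZ (transfection control) and to a control lacking NHR or ligand. Read-out at 48 h in CV-1 cells carrying 100 ng promoter-reporter, 50 ng receptor (alone or with RXR) and 50 ng LacZ.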

[3] = test system: mADRP promoter; test: NHR-promoter luciferase screen, mADRP promoter; format: cell-based, mouse; settings: for Luc. act., normalized to lacZ / Normalized Luc. act., normalized to control: ADRP promoter, HR/ligand component; for mADRP promoter reporter activity: transcription factor +/- ligand, control = 1.00
How it was run: as §1

[4] = test system: MCP-1 promoter; test: NHR-promoter luciferase screen, MCP-1 promoter; format: cell-based; settings: for Normalized Luc. act., normalized to control / Luc. act., normalized to lacZ: MCP-1 promoter reporter; for Normalized Luc. act., normalized to control: HR without or with its ligand, relative to control; for mMCP-1 promoter reporter activity: transcription factor +/- ligand, control = 1.00; for Luc. act., normalized to lacZ: hormone receptor (HR) without or with its ligand
How it was run: as §1

[5] = test system: hCAR promoter; test: NHR-promoter luciferase screen, hCAR promoter; format: cell-based, human; settings: for luciferase activity normalized to lacZ activity and to a control, hCAR: hCAR promoter-luciferase, CV-1 cells, NHR +/- ligand, control = 1.00; for Luc. act., normalized to lacZ / Normalized Luc. act., normalized to control: hCAR promoter, HR/ligand component
How it was run: as §1

[6] = test system: mPgc1b promoter; test: NHR-promoter luciferase screen, mPgc1b promoter; format: cell-based, mouse; settings: for Luc. act., normalized to lacZ / Normalized Luc. act., normalized to control: PGC1b promoter reporter, co-transfected HR, without or with its ligand; for Normalized Luc. act., normalized to control: relative to control; for luciferase activity normalized to lacZ activity and to a control, mPgc1b: mPgc1b promoter-luciferase, CV-1 cells, NHR +/- ligand, control = 1.00
How it was run: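 Luciferase reporter read-out after co-expression in CV-1 cells of V5H6-tagged receptor (alone or with RXR), the promoter construct and LacZ. Values are luciferase/LacZ relative to a control lacking NHR or ligand; orphan receptors tested ligand-free.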

Molecule	Luc. act., normalized to lacZ [1]	Normalized Luc. act., normalized to control [1]	luciferase activity normalized to lacZ activity and to a control, hG6PD [1]	Luc. act., normalized to lacZ [2]	Normalized Luc. act., normalized to control [2]	mSREBP1-c promoter reporter activity [2]	Luc. act., normalized to lacZ [3]	Normalized Luc. act., normalized to control [3]	mADRP promoter reporter activity [3]	Normalized Luc. act., normalized to control [4]	mMCP-1 promoter reporter activity [4]	luciferase activity normalized to lacZ activity and to a control, hCAR [5]	Luc. act., normalized to lacZ [5]	Normalized Luc. act., normalized to control [5]	Luc. act., normalized to lacZ [6]	Normalized Luc. act., normalized to control [6]	luciferase activity normalized to lacZ activity and to a control, mPgc1b [6]	Luc. act., normalized to lacZ [4]
B1	46.1	1.2	1.23	368.2	1.1	1.14	523.7	1.1	1.05	0.0	0.00	0.93	29.2	0.9	11.7	1.0	0.99	–
B2	41.1	1.1	1.10	456.2	1.4	1.42	382.8	0.8	0.77	0.6	0.55	0.58	18.4	0.6	9.0	0.8	0.76	58.9
B3	43.2	1.2	1.15	350.6	1.1	1.09	421.4	0.8	0.85	1.2	1.22	0.99	31.3	1.0	9.0	0.8	0.76	130.4
B4	46.0	1.2	1.23	497.8	1.5	1.55	419.9	0.8	0.84	1.0	1.02	1.20	38.0	1.2	7.4	0.6	0.62	108.9
B5	43.4	1.2	1.16	358.6	1.1	1.11	351.6	0.7	0.71	0.5	0.48	0.54	16.9	0.5	9.2	0.8	0.77	51.9
